Our source for the decrease of cyclin E-associated histone H1 kinase activity after 3 rounds of immunodepletion of CDK1 (90%), CDK2+/+ tumor lysate (sample 3085) and decrease of cyclin E-associated histone H1 kinase activity after 3 rounds of immunodepletion of CDK1 (90%), CDK2-/- tumor lysate (sample 4111) values is publication PMC8121779.

The test has as its target LMW-E-T1 (low molecular weight form of cyclin E, T1), MMTV transgene in mouse salivary gland tumors.

“CDK1 (endogenous in mouse salivary gland tumors) (from UniProt P11440 1-297) (enzyme)”: the decrease of cyclin E-associated histone H1 kinase activity after 3 rounds of immunodepletion of CDK1 (90%), CDK2+/+ tumor lysate (sample 3085) came out at 7% and the decrease of cyclin E-associated histone H1 kinase activity after 3 rounds of immunodepletion of CDK1 (90%), CDK2-/- tumor lysate (sample 4111) amounted to 14%.
